From PMC7479153, “GFP fluorescence tagging alters dynamin-related protein 1 oligomerization dynamics and creates disassembly-refractory puncta to mediate mitochondrial fission” (Scientific Reports, 2020)

B1: mEGFP-Drp1 (N-terminally mEGFP-tagged Drp1 isoform 3), recombinant from E. coli (natural protein, human, UniProt O00429-4 1-699, looked up)
chain: MEALIPVINKLQDVFNTVGADIIQLPQIVVVGTQSSGKSSVLESLVGRDLLPRGTGIVTRRPLILQLVHVSQEDKRKTTGEENGVEAEEWGKFLHTKNKLYTDFDEIRQEIENETERISGNNKGVSPEPIHLKIFSPNVVNLTLVDLPGMTKVPVGDQPKDIELQIRELILRFISNPNSIILAVTAANTDMATSEALKISREVDPDGRRTLAVITKLDLMDAGTDAMDVLMGRVIPVKLGIIGVVNRSQLDINNKKSVTDSIRDEYAFLQKKYPSLANRNGTKYLARTLNRLLMHHIRDCLPELKTRINVLAAQYQSLLNSYGEPVDDKSATLLQLITKFATEYCNTIEGTAKYIETSELCGGARICYIFHETFGRTLESVDPLGGLNTIDILTAIRNATGPRPALFVPEVSFELLVKRQIKRLEEPSLRCVELVHEEMQRIIQHCSNYSTQELLRFPKLHDAIVEVVTCLLRKRLPVTNEMVHNLVAIELAYINTKHPDFADACGLMNNNIEEQRRNRLARELPSAVSRDKVASGGGGVGDGVQEPTTGNWRGMLKTSKAEELLAEEKSKPIPIMPASPQKGHAVNLLDVPVPVARKLSAREQRDCEVIERLIKSYFLIVRKNIQDSVPKAVMHFLVNHVKDTLQSELVGQLYKSSLLDDLLTESEDMAQRRKEAADMLKALQGASQIIAEIRETHLW
notes: dynamin-related protein 1 (Drp1), human, isoform 3, printed length 699 aa; mEGFP is EGFP with A206K (also denoted A207K); fusion sub-cloned from pEGFP-C1 into pET28a; Monomer ~111 kDa as printed; source: E. coli (pET28a), purified to apparent homogeneity, then gel filtration (ENrich SEC 650); not shown: mEGFP, N-terminal, kept
B2: Drp1-BODIPY FL (Drp1 labeled on surface Cys with BODIPY-FL C1-iodoacetamide) (natural protein, human, UniProt O00429-4 1-699, looked up)
chain: B1 chain
modifications: BODIPY-FL iodoacetamide on Cys; primary targets of thiol modification are surface residues C505 and C607; ~2 mol dye/mol protein
notes: dynamin-related protein 1 (Drp1), human, isoform 3, printed length 699 aa; also called BODIPY-labeled Drp1; dye-labeled Drp1; source: E. coli, purified, then labeled with thiol-reactive BODIPY-FL iodoacetamide
B3: mEGFP-Drp1 (N-terminally mEGFP-tagged Drp1 isoform 3), expressed in mammalian cells (natural protein, human, UniProt O00429-4 1-699, looked up)
chain: B1 chain
notes: dynamin-related protein 1 (Drp1), human, isoform 3, printed length 699 aa; mEGFP is EGFP with A206K; In wt MEFs and HeLa cells endogenous Drp1 is also present; also called cytosolic mEGFP-Drp1; source: wt MEFs, Drp1-null MEFs and HeLa cells, transfected (pEGFP-C1), in living cells; not shown: mEGFP, N-terminal, kept
B4: Drp1-wt (N-terminal 6XHis-tagged human dynamin-related protein 1, isoform 3) (natural protein, UniProt O00429-4 1-699, looked up)
chain: B1 chain
notes: dynamin-related protein 1 (Drp1), human, isoform 3, printed length 699 aa; also called unlabeled Drp1-wt; native-like His-tagged Drp1; source: E. coli, purified to apparent homogeneity, then gel filtration (ENrich SEC 650)
B5: Drp1-mEGFP (C-terminally mEGFP-tagged Drp1 isoform 3), recombinant from E. coli (natural protein, human, UniProt O00429-4 1-699, looked up)
chain: B1 chain
B6: Drp1-AF488 (Drp1 labeled on surface Cys with Alexa Fluor 488 C5-maleimide) (natural protein, human, UniProt O00429-4 1-699, looked up)
chain: B1 chain
modifications: AF488 maleimide on Cys; primary targets of thiol modification are surface residues C505 and C607; ~2 mol dye/mol protein
notes: dynamin-related protein 1 (Drp1), human, isoform 3, printed length 699 aa; also called AF488-labeled Drp1; dye-labeled Drp1; source: E. coli, purified, then labeled with thiol-reactive AF488 maleimide

Columns and labels:
[1] = molecular target: the molecule itself; assay: cell-based or functional assay
[2] = molecular target: the molecule itself; assay: SEC-MALS; Superose 6 10/300 GL, 20 mM HEPES pH 7.5, 150 mM KCl, 1 mM DTT; loading protein concentration varied, 500 uL injected; no nucleotide
[3] = molecular target: the molecule itself; assay: fluorescence correlation spectroscopy (single-point FCS); 0.5 uM fluorescently labeled protein in solution, 25 C, 20 mM HEPES pH 7.5, 150 mM KCl, 1 mM DTT; without and with 1 mM GMP-PCP and 1 mM MgCl2 (30 min); unlabeled Drp1-wt (1 uM final, 2X molar excess) added where it is the partner
[4] = molecular target: the molecule itself; assay: number and brightness (N&B) analysis; living transfected wt MEFs, Drp1-null MEFs and HeLa cells, 37 C; brightness normalised to that of mEGFP alone taken as the monomer; puncta on mitochondria left out

Protein	decrease in GTP turnover (kcat) relative to Drp1-wt, basal and cardiolipin-stimulated, malachite green assay, 0.5 uM protein [1] [%]	stoichiometry N [2]	binding result [3]	further results
B1	> 50	≥ 4		
B2			binds	
B3				stoichiometry N [4]: ~4
B4		≥ 2		
B5	> 50			
B6			binds	
